These results are taken from patent JP2018082720A (dated 2018).

Several values for one entry are separate records, joined by “and”; a condition that tells them apart may be missing. Equal entries are not always repeated.

For one assay, the target named is T1, cynomolgus monkey MMP9 (cynomolgus monkey, UniProt A0A2K5UU71 20-706).
T1 construct: also called カニクイザルMMP9; recombinant cynomolgus MMP9
The assay is described as follows: ELISA. Background: An ELISA detects its analyte on a solid surface through an enzyme-linked reagent.

A further assay deals with T2, rat MMP9 (rat, UniProt P50282 20-708, limits assumed).
T2 construct: also called ラットMMP9; recombinant rat MMP9
T2 sequence (P50282 20-708 limits assumed): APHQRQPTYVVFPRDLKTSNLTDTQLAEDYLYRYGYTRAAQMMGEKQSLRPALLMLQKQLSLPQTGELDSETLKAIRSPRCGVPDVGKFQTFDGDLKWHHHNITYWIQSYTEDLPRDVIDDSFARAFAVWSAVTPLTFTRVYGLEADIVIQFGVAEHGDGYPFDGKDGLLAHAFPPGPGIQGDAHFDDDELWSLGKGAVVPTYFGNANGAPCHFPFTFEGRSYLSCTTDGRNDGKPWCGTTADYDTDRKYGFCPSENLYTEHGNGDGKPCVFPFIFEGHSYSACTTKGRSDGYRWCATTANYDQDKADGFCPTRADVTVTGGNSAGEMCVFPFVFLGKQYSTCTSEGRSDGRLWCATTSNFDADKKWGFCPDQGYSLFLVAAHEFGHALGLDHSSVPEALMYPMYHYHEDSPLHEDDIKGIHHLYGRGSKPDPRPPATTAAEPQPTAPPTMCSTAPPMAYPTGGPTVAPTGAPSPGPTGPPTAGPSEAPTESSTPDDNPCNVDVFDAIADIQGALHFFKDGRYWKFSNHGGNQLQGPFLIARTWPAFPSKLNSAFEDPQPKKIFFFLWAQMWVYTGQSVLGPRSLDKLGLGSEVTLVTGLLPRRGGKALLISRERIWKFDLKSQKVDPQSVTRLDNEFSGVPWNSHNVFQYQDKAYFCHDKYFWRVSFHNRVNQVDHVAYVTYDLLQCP
The assay is described as follows: ELISA.

Assay [1] deals with T3, human MMP9 (human, UniProt P14780 20-707, limits assumed).
T3 construct: also called ヒトMMP9; matrix metalloproteinase-9
T3 sequence (P14780 20-707 Q279R/R574P limits assumed): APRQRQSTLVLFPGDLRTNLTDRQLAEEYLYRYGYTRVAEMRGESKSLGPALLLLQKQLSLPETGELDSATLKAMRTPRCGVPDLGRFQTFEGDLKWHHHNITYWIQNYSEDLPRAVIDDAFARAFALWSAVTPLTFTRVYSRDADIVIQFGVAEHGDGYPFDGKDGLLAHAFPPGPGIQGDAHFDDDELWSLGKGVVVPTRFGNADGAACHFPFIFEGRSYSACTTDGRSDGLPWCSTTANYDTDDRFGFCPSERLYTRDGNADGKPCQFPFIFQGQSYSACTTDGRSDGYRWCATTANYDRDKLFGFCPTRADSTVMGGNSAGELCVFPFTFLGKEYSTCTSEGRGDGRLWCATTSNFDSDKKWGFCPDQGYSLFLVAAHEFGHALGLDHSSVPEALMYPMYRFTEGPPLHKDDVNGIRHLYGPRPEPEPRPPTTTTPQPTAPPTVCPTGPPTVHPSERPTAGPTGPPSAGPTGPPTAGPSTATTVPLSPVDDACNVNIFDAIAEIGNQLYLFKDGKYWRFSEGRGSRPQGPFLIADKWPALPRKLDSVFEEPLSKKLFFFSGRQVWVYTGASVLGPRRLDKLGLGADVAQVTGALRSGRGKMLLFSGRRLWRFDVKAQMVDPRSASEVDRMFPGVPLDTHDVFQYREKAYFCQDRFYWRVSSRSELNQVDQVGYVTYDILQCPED
The assay is described as follows: SPR. (In general: SPR reads the build-up and loss of mass on a sensor chip optically.)

Assay [2] addresses T3, human MMP9. The assay is described as follows: cell-based or functional assay.
For assay [3], the target named is T4, mouse MMP9 (mouse, UniProt P41245 20-730, limits assumed).
T4 construct: The immunogen for AB0046 was a pro/catalytic domain fragment of mouse MMP9; also called マウスMMP9
T4 sequence (P41245 20-730 limits assumed): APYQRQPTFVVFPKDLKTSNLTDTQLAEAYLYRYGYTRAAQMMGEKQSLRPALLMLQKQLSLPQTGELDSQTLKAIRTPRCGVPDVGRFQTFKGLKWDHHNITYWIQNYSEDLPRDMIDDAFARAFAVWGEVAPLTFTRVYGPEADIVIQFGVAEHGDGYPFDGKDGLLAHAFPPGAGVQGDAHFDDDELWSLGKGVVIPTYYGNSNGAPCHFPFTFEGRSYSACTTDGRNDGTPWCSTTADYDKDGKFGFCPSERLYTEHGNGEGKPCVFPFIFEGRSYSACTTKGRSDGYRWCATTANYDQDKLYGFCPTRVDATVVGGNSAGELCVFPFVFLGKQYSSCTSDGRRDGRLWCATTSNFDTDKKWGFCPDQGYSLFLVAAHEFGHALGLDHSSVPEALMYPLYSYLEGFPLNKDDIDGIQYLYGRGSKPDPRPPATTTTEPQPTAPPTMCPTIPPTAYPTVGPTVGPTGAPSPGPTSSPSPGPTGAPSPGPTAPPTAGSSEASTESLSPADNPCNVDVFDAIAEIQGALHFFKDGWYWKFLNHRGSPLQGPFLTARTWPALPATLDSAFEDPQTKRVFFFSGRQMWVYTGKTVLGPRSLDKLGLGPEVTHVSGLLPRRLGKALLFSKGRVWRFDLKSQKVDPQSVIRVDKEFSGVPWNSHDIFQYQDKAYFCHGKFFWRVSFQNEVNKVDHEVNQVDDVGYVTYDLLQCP
Briefly: ELISA.

Assay [4] concerns the target T4, mouse MMP9. The assay is described as follows: cell-based or functional assay.
For assay [5], the target named is T3, human MMP9. Briefly: ELISA.
Assay [6] addresses T3, human MMP9. The assay is described as follows: direct binding assay and SPR.

T1 sequence (A0A2K5UU71 entry or part of it): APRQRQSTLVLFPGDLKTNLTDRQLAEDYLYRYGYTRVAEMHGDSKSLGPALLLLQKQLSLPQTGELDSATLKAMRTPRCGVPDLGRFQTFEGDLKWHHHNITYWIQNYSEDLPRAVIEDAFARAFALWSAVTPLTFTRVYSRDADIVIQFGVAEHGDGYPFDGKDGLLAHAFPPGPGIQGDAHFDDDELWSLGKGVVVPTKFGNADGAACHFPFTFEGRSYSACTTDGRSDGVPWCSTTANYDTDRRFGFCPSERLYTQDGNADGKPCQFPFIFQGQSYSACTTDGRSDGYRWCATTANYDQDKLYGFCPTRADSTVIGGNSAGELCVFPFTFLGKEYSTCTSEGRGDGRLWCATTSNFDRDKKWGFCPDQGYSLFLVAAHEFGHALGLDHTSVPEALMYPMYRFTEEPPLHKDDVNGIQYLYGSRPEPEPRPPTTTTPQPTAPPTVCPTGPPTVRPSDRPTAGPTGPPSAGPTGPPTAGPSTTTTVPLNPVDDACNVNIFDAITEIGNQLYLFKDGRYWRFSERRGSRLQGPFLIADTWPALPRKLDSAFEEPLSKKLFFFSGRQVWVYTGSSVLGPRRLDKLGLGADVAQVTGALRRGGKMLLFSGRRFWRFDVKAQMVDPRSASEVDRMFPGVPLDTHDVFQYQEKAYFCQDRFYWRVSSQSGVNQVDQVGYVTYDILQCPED

B1: AB0041 (antibody, V domains shown)
VH: QVQLKESGPGLVAPSQSLSITCTVSGFSLLSYGVHWVRQPPGKGLEWLGVIWTGGTTNYNSALMSRLSISKDDSKSQVFLKMNSLQTDDTAIYYCARYYYGMDYWGQGTSVTVSS
VL: DIVMTQSHKFMSTSVGDRVSITCKASQDVRNTVAWYQQKTGQSPKLLIYSSSYRNTGVPDRFTGSGSGTDFTFTISSVQAEDLAVYFCQQHYITPYTFGGGTKLEIKR
Consider B1, for which the dissociation constant (Kd) (in general, the free concentration of one partner at which half of the binding sites on the other are occupied at equilibrium, for simple one-to-one binding) was less than 0.4 nM with cynomolgus monkey MMP9, less than 0.4 nM in the assay with rat MMP9 and 0.0004 nM with human MMP9 [1]. In the assay with human MMP9 [2], the “IC50, MMP9-mediated cleavage of fluorogenic peptide substrate Mca-PLGL-Dpa-AR-NH2” value (“IC50, MMP9-mediated cleavage” below) is 0.569 nM.

B2: AB0046 (antibody, V domains shown)
VH: QVQLQQPGSVLVRPGASVKLSCTASGYTFTSYWMNWVKQRPGQGLEWIGEIYPISGRTNYNEKFKVKATLTVDTSSSTAYMDLNSLTSEDSAVYYCARSRANWDDYWGQGTTLTVSS
VL: DIQMTQTTSSLSASLGDRVTISCSASQGISNYLNWYQQKPDGTFKLLIYYTSILHSGVPSRFSGSGSGTDYSLTISNLEPEDIATYYCQQYGWLPRTFGGGTKLEIKR
notes: Mouse IgG1 / kappa; also called AB0046; anti-mouse MMP9 antibody
As for B2, binding in the assay with mouse MMP9 [3] was characterised by a dissociation constant (Kd) of 0.218 nM. Moreover, the “IC50, MMP9-mediated cleavage” value in the assay with mouse MMP9 [4] came to 0.352 nM.

B3: AB0045 (antibody, V domains shown)
VH: QVQLQESGPGLVKPSETLSLTCTVSGFSLLSYGVHWVRQPPGKGLEWLGVIWTGGTTNYNSALMSRFTISKDDSKNTVYLKMNSLKTEDTAIYYCARYYYGMDYWGQGTLVTVSS
VL: DIQMTQSPSSLSASVGDRVTITCKASQDVRNTVAWYQQKPGKAPKLLIYSSSYRNTGVPDRFSGSGSGTDFTLTISSLQAEDVAVYYCQQHYITPYTFGGGTKVEIKR
notes: Humanized, modified human IgG4 (S241P) / kappa; also called AB0045; humanized variant anti-MMP9 antibody
For the molecule B3, the equilibrium dissociation constant (Kd) with human MMP9 [5] was < 0.4 nM and 0.168 nM; with cynomolgus monkey MMP9 it was less than 0.4 nM; with rat MMP9, less than 0.4 nM; with human MMP9 [1] it was 0.0088 nM; with human MMP9 [6] it was approximately 0.001 nM. Moreover, the “IC50, MMP9-mediated cleavage” value with human MMP9 [2] was determined as 0.691 nM. For the same molecule, in the assay with human MMP9 [2], the “IC50, MMP9 enzyme assay under steady state” value was 0.148 nM and 0.161 nM and 0.158 nM.
